Substitutions are numbered along the chain they refer to.
How the values were obtained:
[1] = target: T1, MS2 coat protein V75E,A81G (MS2 bacteriophage, UniProt P03612 2-130, V76E;A82G); experiment: competition; displaces [F]RNA2MS2; FP with 5 nM ligand at 25 C (some FPCD at 4 C); buffer for MS2-CP (BB6): 100 mM Tris pH 7.5, 10 mM MgCl2, 80 mM KCl, 0.1 mg/mL BSA; other buffers not in material; settings: protein: recombinant; tags: HisMBP fusion with 3C protease site; chain copies: 2; hairpin
[2] = target: T2, FBF-2 RNA-binding domain (Caenorhabditis elegans, UniProt Q09312 164-575); experiment: fluorescence polarization; 25 C; apparent Kd; FP with 5 nM ligand at 25 C (some FPCD at 4 C); buffer for MS2-CP (BB6): 100 mM Tris pH 7.5, 10 mM MgCl2, 80 mM KCl, 0.1 mg/mL BSA; other buffers not in material; settings: protein: recombinant; label: 5' 6-FAM
T2 sequence: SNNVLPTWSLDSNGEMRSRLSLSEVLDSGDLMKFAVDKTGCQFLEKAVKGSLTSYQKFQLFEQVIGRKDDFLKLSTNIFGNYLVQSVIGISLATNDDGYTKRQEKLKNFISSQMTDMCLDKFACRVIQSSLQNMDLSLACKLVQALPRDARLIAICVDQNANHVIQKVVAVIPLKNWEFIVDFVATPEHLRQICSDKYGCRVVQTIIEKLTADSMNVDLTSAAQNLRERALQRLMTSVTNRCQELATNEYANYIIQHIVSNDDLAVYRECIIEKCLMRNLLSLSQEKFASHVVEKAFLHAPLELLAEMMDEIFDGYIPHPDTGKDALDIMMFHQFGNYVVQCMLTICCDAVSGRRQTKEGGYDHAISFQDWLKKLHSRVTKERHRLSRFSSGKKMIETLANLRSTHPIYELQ

[3] = target: hnRNP-U RNA-binding domain (human, UniProt Q00839 673-825); experiment: as above; settings: protein: recombinant; tags: N-terminal His-MBP fusion; label: fluorophore, 3' by name; G-quadruplex
[4] = target: T3, TREX1 R174A,K175A (murine, UniProt Q91XB0 1-242, R174A;K175A); experiment: as above; settings: protein: recombinant; tags: MBP fusion, cleaved by protease (similar to WT); chain copies: 2; label: 5' fluorophore (FP)
T3 sequence: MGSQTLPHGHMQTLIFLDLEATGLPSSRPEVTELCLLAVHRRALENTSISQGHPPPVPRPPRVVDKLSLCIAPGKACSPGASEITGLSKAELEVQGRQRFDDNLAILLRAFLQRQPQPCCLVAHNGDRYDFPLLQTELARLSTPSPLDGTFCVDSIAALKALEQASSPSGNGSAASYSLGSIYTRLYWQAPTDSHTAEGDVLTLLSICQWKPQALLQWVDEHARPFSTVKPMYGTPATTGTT

[5] = target: T4, TREX1 catalytic core (murine, UniProt Q91XB0 1-242); experiment: as above; settings: protein: recombinant; tags: MBP fusion, cleaved by protease; chain copies: 2; label: 5' fluorophore (FP)
T4 sequence: T3 sequence with A174R, A175K

[6] = target: T1, MS2 coat protein V75E,A81G; experiment: fluorescence polarization; 25 C; apparent Kd, ligand 5 nM >= Kd so true Kd may be lower; FP with 5 nM ligand at 25 C (some FPCD at 4 C); buffer for MS2-CP (BB6): 100 mM Tris pH 7.5, 10 mM MgCl2, 80 mM KCl, 0.1 mg/mL BSA; other buffers not in material; settings: protein: recombinant; tags: HisMBP fusion with 3C protease site; chain copies: 2; label: fluorophore; hairpin

hnRNP-U RNA-binding domain, sequence (Q00839 673-825): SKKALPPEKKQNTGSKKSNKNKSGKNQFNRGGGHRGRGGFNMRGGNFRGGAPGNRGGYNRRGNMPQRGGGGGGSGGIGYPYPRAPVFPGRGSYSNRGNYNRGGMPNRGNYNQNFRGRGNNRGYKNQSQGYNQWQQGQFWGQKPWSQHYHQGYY

Question: Does GGGACUGAGGAUCACCCAGUCUAU (structured_RNA) [RNA1MS2] bind [1]?
Answer: binds

Question: For AACAUGUGCCAUA (ssRNA) [[F]RNAPUF], which Kd [2] is on record?
Answer: 50 ± 9.2 nM

Question: How did the Kd [3] turn out when GGGAAGGGAAGGGAAGGGAA (structured_RNA) [r(G3A2)4[F]] was run?
Answer: 15 ± 4.8 nM

Question: For GACTG (ssDNA) [[F]d(N)5], which Kd [4] is on record?
Answer: 46 ± 16 nM

Question: What about the Kd [5] of the same binder?
Answer: 8.9 ± 3.8 nM

Question: Which Kd [6] does the source give for GGACAUGAGGAUCACCCAUGU (structured_RNA) [[F]RNA2MS2] here?
Answer: 2.9 ± 0.62 nM

Source: article PMC10293810, “Multiple RNA- and DNA-binding proteins exhibit direct transfer of polynucleotides with implications for target-site search”
